Assay results reported in US20240343803A1 (SHANDONG SIMCERE BIOPHARMACEUTICAL, published 2024).

T1: human PVRIG-his (AcroBiosystems, Cat NO. PVG-H52H4) (human, UniProt Q6DKI7 41-171, limits assumed)
T1 construct: also called human PVRIG protein
T1 sequence (looked up): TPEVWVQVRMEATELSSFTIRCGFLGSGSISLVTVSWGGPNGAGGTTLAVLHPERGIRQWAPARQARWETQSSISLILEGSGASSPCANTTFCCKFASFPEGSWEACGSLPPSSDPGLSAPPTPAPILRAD

T2: human PVRIG-mFc protein (Acro, PVG-H5253) (human, UniProt Q6DKI7 41-171, limits assumed)
T2 construct: bought protein
T2 sequence (looked up): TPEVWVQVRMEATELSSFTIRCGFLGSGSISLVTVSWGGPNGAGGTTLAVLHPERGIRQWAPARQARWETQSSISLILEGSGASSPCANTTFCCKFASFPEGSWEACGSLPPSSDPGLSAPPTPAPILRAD


Assays:
[1] = biological target: T1, human PVRIG-his (AcroBiosystems, Cat …); assay: competition ELISA, PVRIG-His coated, competitor human PVRL2-mFc
Method: The ELISA plate was pre-coated with 100 μL/well of 0.5 μg/mL human PVRIG-his protein (AcroBiosystems, Cat NO. PVG-H52H4). The tested anti-PVRIG antibodies were diluted from the highest concentration of 16 nM (two-fold concentration). The diluted antibodies were mixed with 18 ng/ml human PVRL2-mFc (AcroBiosystems, Cat NO. CD2-H5257) in equal volume, added into the plate (100 μL/well), and incubated with shaking at room temperature for 2.0 hours. […] A HRP substrate, TMB (Thermo, Cat NO. 34029) was added into wells after washing the plate again for color development. After adding a termination solution to terminate the reaction, the absorbance value was read by a microplate reader (MD i3×). An inhibiting curve was drawn with concentration of antibodies as the abscissa and the corresponding OD value as the ordinate. The IC50 value was calculated by using a Four Parameter Logistic Fit (GraphPadPrism9). The smaller the IC50 value, the stronger the ability of the antibodies inhibits the binding between PVRIG and PVRL2. The positive and negative controls are the same as in Example 8.

[2] = biological target: T1, human PVRIG-his (AcroBiosystems, Cat …); assay: SPR (BIAcore), antibody captured on Protein A chip, human PVRIG-His analyte
Method: Biacore was used to detect the specific binding between anti-PVRIG antibody and human PVRIG protein. Protein A chip was used in the BIAcore assay. The time required for the chip to capture the diluted antibody and saturate the binding antigen to reach Rₘₐₓ (Maximum binding capacity, 50 RU) was measured by manual run. […] The affinity of antibody for antigen was measured by multi-cycle kinetics. In each cycle, the antibodies were injected prior to the injection of gradient concentraions of PVRIG proteins allowing the occurrence of antibody-antigen association and dissociation After each cycle, the Protein A chip was regenerated by Glycine, pH 1.5 (to remove the proteins on the chip). The affinity of antibody for antigen was calculated by BIAcore T200 analysis software.

[3] = biological target: T2, human PVRIG-mFc protein (Acro, …); assay: FACS competition, PVRIG-mFc binding to CHO-K1-CD112 cells, competitor CD112 on cells
Method: A working solution of human PVRIG-mFc protein (Acro, PVG-H5253) prepared with staining buffer, 1 μg/mL (four-fold concentration), was added into a 96-well plate (50 μL PVRIG-mFc working solution per well). […] The diluted antibodies were added to the well containing 50 μL of PVRIG-mFc. The plate was placed on a microplate shaker at 400 rpm for 1 minute to fully mix the antibodies and PVRIG-mFc proteins, and then incubated at 4° C. for 30 minutes. After the incubation, the cell suspension prepared above (100 μL) was added into the wells, gently mixed with the pipette tip and incubated at 4° C. for 30 minutes. After the incubation, the cells were washed twice with staining buffer (200 μL per well) and centrifuged at 350×g for 5 minutes to discard the supernatant. The PE goat anti-mouse IgG Fc antibody (Biolegend, 405337) was diluted 250 times with staining buffer, added into the washed wells (100 μL per well), mixed well, and stained at 4° C. for 30 minutes. After staining, the cells were washed twice with staining buffer, finally resuspended with 200 μL staining buffer and analyzed by flow cytometry (BD, Canto II). The weaker the fluorescence signal, the stronger the ability of the antibodies blocks the binding of CHO-K1 human CD112 cells to the PVRIG-mFc protein. An antibody binding curve was drawn with concentration of antibodies as the abscissa and the corresponding Mean Fluorescence Intensity (MFI) as the ordinate. The IC50 value of the antibodies and the AUC value of the binding curve were calculated by using a Four Parameter Logistic Fit (GraphPadPrism9). The smaller the IC50 value and AUC value, the stronger the ability of the antibodies competes with CHO-K1-CD112 cells to bind to human PVRIG-mFc protein. […] […] The smaller the percentage value, the stronger the blocking ability of the antibodies.

Binder	IC50 [1] [pM]	Kd [2] [pM]	koff [2] [s⁻¹]	kon [2] [M⁻¹ s⁻¹]	% AUC to COM701-hIgG4 [3] [%]	% AUC to SRF813-hIgG1 [3] [%]	% IC50 to COM701-hIgG4 [3] [%]	% IC50 to SRF813-hIgG1 [3] [%]
PVRIG-A75 (Fc fusion, heavy chain antibody VHH-hinge-CH2-CH3, human IgG1 constant part; not shown: human IgG1 hinge-CH2-CH3) QLQLVESGGGLVQSGGSLRLSCAASGRTRSMYVMGWFRQAPGKEREFVGRIKWSGDTTYTSYADFVKGRFTLYGNQARNTVYLQMNSLKPEDTAVYSCAASKFPVSGVPEHYDYWGQGTQVTVSS	62.1	531	5.67e-05	107000	101	86.6	89.6	93.7
PVRIG-A113 (Fc fusion, heavy chain antibody VHH-hinge-CH2-CH3, human IgG1 constant part; not shown: human IgG1 hinge-CH2-CH3) QLQLVESGGGLVQSGGSLRLSCAASGRTRSMYVMGWFRQAPGKEREFVGRIKWSGDTTYTSYADFVKGRFTLYGNQARNTVYLQMNSLKPEDTAVYYCAALPSDYDYRAASYGVDYWGKGTLVTVSS	92	203	8.96e-05	442000	172	106	124	97.9
PVRIG-A60 (Fc fusion, heavy chain antibody VHH-hinge-CH2-CH3, human IgG1 constant part; not shown: human IgG1 hinge-CH2-CH3) QVQLVESGGGLVQSGGSLRLSCAASGRTRSMYVMGWFRQAPGKEREFVGRIKWSGDTTYTSYADFVKGRFTLYGNQARNTVYLQMNSLKPEDAAVYYCNLRRLDGVNYWGKGTLVTVSS	55.7	283	3.97e-05	141000	117	103	98.9	96.4
PVRIG-A35 (Fc fusion, heavy chain antibody VHH-hinge-CH2-CH3, human IgG1 constant part; not shown: human IgG1 hinge-CH2-CH3) EVQVVESGGGLVQSGGSLRLSCAASGRTRSMYVMGWFRQAPGKEREFVGRIKWSGDTTYTSYADFVKGRFTLYGNQARNTVYLQMNSLKPEDTAVYYCNGRSRFNVINAWGTGTLVTVAS	54.3	846	7.53e-06	8900	145	126	138	136
PVRIG-A117 (Fc fusion, heavy chain antibody VHH-hinge-CH2-CH3, human IgG1 constant part; not shown: human IgG1 hinge-CH2-CH3) EVQVVESGGGLVQAGGSLRLSCTASEHIYDLYIMGWYRQAPGKDRELVATITYTGSIYIADSVKDRFTISRGNAKNTVSLQMSGLKPEDTAVYYCNADPSGLGRKLYWGQGTQVTVSS	52.8	367	0.00137	3.74e+06	130	72.7	134	118
PVRIG-A30 (Fc fusion, heavy chain antibody VHH-hinge-CH2-CH3, human IgG1 constant part; not shown: human IgG1 hinge-CH2-CH3) QVQLVESGGGLVQPGGSLRLSCAASGRTDSMNVMGWFRRAPGKEREFVARIKWNGDTTYTAYADFLKGRFTLYGAVARNRVYLQMNSLQPEDTAVYYCAAGEVSGSSYSPDYGMHYWGKGTLVTVSS	255	404	6.36e-05	157000	58.9	58.9	48.1	64.4

Continued by falling IC50 [1], values first:

IC50 [1] [pM]	Kd [2] [pM]	koff [2] [s⁻¹]	kon [2] [M⁻¹ s⁻¹]	% AUC to COM701-hIgG4 [3] [%]	% AUC to SRF813-hIgG1 [3] [%]	% IC50 to COM701-hIgG4 [3] [%]	% IC50 to SRF813-hIgG1 [3] [%]	Binder
208	377	2.31e-05	61200	77.2	77.3	54.1	72.4	PVRIG-A15 (Fc fusion, heavy chain antibody VHH-hinge-CH2-CH3, human IgG1 constant part; not shown: human IgG1 hinge-CH2-CH3) QVQLVESGGGLVQAGGSLRLSCVASGRTFSANTMAWFRQAPGKEREFVAYTRWTDDNTDYASYADFVKGRFTAFRDNTRNTMYLQMNRLRPEDTAVYYCAAATTRGTYYSAGDYNSWGQGTQVTVSS
65.9	27.6	4.24e-06	154000	152	111	118	116	PVRIG-A104 (Fc fusion, heavy chain antibody VHH-hinge-CH2-CH3, human IgG1 constant part; not shown: human IgG1 hinge-CH2-CH3) EVQVVESGGGLVQAGGSLRLSCAASGRTRSMYVMGWFRQAPGKEREFVGRIKWSGDTTYTSYADFVKGRFTLYGNQARNTVYLQMNSLKPEDTAVYYCYRRSWTNTKLYWGKGIQVTVSS
53.7	366	8.58e-06	23400	128	111	121	119	PVRIG-A43 (Fc fusion, heavy chain antibody VHH-hinge-CH2-CH3, human IgG1 constant part; not shown: human IgG1 hinge-CH2-CH3) QVQLVESGGGLVQSGGSLRLSCAASGRTRSMYVMGWFRQAPGKEREFVGRIKWSGDTTYTSYADFVKGRFTLYGNQARNTVYLQMNSLKVEDTAVYYCAGRVVPLPSRQRDRYDYWGQGTQVTVSS
